Legend:
[1] = molecular target: Insulin receptor; assay: SPR (BIACORE 3000), insulin receptor immobilised on CM5 chip; Test 2
[2] = molecular target: Insulin receptor; assay: SPR (BIACORE 3000), insulin receptor immobilised on CM5 chip; Test 3
[3] = molecular target: Insulin receptor; assay: SPR (BIACORE 3000), insulin receptor immobilised on CM5 chip; Test 4
[4] = molecular target: Insulin receptor; assay: SPR (BIACORE 3000), insulin receptor immobilised on CM5 chip; Test 5

- Kd [1]: 0.781 µM
- ka relative to native human insulin [1]: 3.9%
- kd relative to native human insulin [1]: 77.2%
- koff [1]: 0.0078 s⁻¹
- kon [1]: 9000 M⁻¹ s⁻¹
- receptor binding affinity (KD) relative to native human insulin [1]: 5.9%
- Kd [2]: 1.24 µM
- ka relative to native human insulin [2]: 2.7%
- kd relative to native human insulin [2]: 54.5%
- koff [2]: 0.00585 s⁻¹
- kon [2]: 5000 M⁻¹ s⁻¹
- receptor binding affinity (KD) relative to native human insulin [2]: 5.1%
- Kd [3]: 1.14 µM
- ka relative to native human insulin [3]: 2.1%
- kd relative to native human insulin [3]: 56.1%
- koff [3]: 0.0069 s⁻¹
- receptor binding affinity (KD) relative to native human insulin [3]: 3.7%
- Kd [4]: 0.862 µM
- ka relative to native human insulin [4]: 4.3%
- kd relative to native human insulin [4]: 76.5%
- koff [4]: 0.0074 s⁻¹
- kon [4]: 9000 M⁻¹ s⁻¹
- receptor binding affinity (KD) relative to native human insulin [4]: 5.9%
Substance: Native insulin-immunoglobulin Fc conjugate

From patent publication US20170101455A1
